Measured values: patent US20240025949A1, “Beta-Arrestin Effectors and Compositions and Methods of Use Thereof” (Trevena, Inc., priority 2021, published 2024)

What was measured:
[1] = molecular target: human angiotensin 2 type 1 receptor (human) (UniProt P30556); assay: cell-based or functional assay
[2] = molecular target: rat angiotensin 2 type 1 receptor (rat) (UniProt P25095); assay: cell-based or functional assay
Chain of rat angiotensin 2 type 1 receptor (rat) (P25095 whole entry): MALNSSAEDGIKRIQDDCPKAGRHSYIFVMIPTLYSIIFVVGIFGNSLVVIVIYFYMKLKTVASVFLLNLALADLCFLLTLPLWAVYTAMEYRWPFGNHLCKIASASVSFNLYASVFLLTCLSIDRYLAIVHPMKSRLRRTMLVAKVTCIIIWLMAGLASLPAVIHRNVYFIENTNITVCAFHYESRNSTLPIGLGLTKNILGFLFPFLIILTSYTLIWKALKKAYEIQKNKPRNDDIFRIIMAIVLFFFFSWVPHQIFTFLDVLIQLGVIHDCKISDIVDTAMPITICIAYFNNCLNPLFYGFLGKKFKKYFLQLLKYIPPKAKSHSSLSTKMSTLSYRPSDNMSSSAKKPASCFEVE

Chain of human angiotensin 2 type 1 receptor (human) (P30556 whole entry): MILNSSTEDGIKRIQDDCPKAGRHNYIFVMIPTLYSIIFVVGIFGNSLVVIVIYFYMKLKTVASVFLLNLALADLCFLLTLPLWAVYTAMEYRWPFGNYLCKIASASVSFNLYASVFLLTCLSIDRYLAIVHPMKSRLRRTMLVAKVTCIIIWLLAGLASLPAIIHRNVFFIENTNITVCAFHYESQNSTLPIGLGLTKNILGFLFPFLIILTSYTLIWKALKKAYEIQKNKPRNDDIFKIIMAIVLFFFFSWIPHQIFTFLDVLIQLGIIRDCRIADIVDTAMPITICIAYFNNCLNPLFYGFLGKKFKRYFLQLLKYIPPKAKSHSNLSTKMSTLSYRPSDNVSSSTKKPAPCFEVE

IP One EC50 [1] [nM] | b-arrestin2 EC50 [1] [nM] | b-arrestin2 Max [1] [%] | IP One EC50 [2] [nM] | b-arrestin2 EC50 [2] [nM] | b-arrestin2 Max [2] [%] | IP One Max [2] [%] | IP One Max [1] [%] | Molecule
> 10000 | 32 | 50.5 | > 10000 | 16 | 80.6 |  |  | SEQ ID NO: 84 (Sar-Arg-Val-Tyr-OMTh-His-Pro-D-Ala-OH) (peptide)
> 10000 | 200 | 34.3 | > 10000 | 50 | 70.2 |  |  | SEQ ID NO: 83 (Sar-Arg-Val-Tyr-NVA-His-Pro-D-Ala-OH) (peptide)
> 10000 | 9.2 | 68.2 | > 10000 | 8.2 | 80.4 |  |  | SEQ ID NO: 30 (Sar-Arg-Val-Tyr-OMTh-His-Pro-Ala-OH) (peptide)
 |  |  | > 10000 | 16 | 84.2 |  |  | SEQ ID NO: 27 (Sar-Arg-Val-Tyr-Ile-His-Pro-D-Ala-OH) (peptide)
> 10000 | 6700 | 30.6 | > 10000 | 10000 | 58.5 |  |  | SEQ ID NO: 66 (N-Me-Glu-Arg-Val-Tyr-Phe-His-Pro-NH2) (peptide)
 |  |  |  |  | 60.3 | 13.3 |  | SEQ ID NO: 10 (Sar-Arg-Val-Tyr-Ile-His-Pro-Ala-NH2) (peptide)
110 | 920 | 12.1 | 59 | > 10000 |  | 21.9 | 14.1 | SEQ ID NO: 6 (Sar-Arg-Val-Gly-Val-His-Pro-Gly-NH2) (peptide)
> 10000 | 320 | 38.3 | > 10000 | 130 | 60.6 |  |  | SEQ ID NO: 82 (NM-D-Ala-Arg-Val-Tyr-Ile-His-Pro-D-Ala-OH) (peptide)
> 10000 | 2000 | 37.8 | > 10000 | 2800 | 67.3 |  |  | SEQ ID NO: 65 (N-Me-Asp-Arg-Val-Tyr-Phe-His-Pro-NH2) (peptide)
> 10000 | 1200 | 20.4 | > 10000 | 870 | 26.9 |  |  | SEQ ID NO: 64 (Glu-Arg-Val-Tyr-Phe-His-Pro-NH2) (peptide)
> 10000 | 210 | 36.9 | 35 | 200 | 41.8 | 11.3 |  | SEQ ID NO: 8 (Sar-Arg-Val-Tyr-Val-His-Pro-Ala-NH2) (peptide)
 | 79 | 55.6 | 24 | 43 | 80.2 | 6.8 |  | SEQ ID NO: 32 (Me2G-Arg-Val-Tyr-Ile-His-Pro-Ala-OH) (peptide)
> 10000 | 450 | 36.5 | 41 | 120 | 67.1 | 19.6 |  | SEQ ID NO: 3 (Sar-Arg-Val-Ile-Val-His-Pro-Ile-OH) (peptide)
 |  | 24.9 | 360 |  |  | 33.8 |  | SEQ ID NO: 2 (Sar-Arg-Val-Ile-Ile-His-Pro-Ile-NH2) (peptide)
 |  | 57.9 |  |  | 77 | 14.1 |  | SEQ ID NO: 25 (Asp-Arg-Val-Tyr-Ile-His-Pro-Ala-OH) (peptide)
 |  |  |  |  | 74 | 9.5 |  | SEQ ID NO: 9 (Sar-Arg-Val-Tyr-Ile-His-Pro-Ala-OH) (peptide)
65 | 1600 | 39.4 | 96 | 1900 | 61.7 | 24.8 | 18.1 | SEQ ID NO: 5 (Sar-Arg-Val-Gly-Val-His-Pro-Gly-OH) (peptide)
> 10000 | 590 | 43.3 | > 10000 | 200 | 64.8 |  |  | SEQ ID NO: 29 (Sar-Arg-Val-OMTyr-Ile-His-Pro-Ala-OH) (peptide)
> 10000 | 80 | 47.3 | 8.2 | 65 | 71.9 | 14.6 |  | SEQ ID NO: 44 (NMAla-Arg-Val-Tyr-Ile-His-Pro-D-Ala-OH) (peptide)
> 10000 | 75 | 51.9 | > 10000 | 38 | 77.3 |  |  | RVYYHP (N-terminal Sar; C-terminal amide) [SEQ ID NO: 26 (Sar-Arg-Val-Tyr-Tyr-His-Pro-NH2)]
> 10000 | > 10000 |  | > 10000 | 3600 | 86.6 |  |  | RVYEHPA (N-terminal Sar; C-terminal acid) [SEQ ID NO: 20 (Sar-Arg-Val-Tyr-Glu-His-Pro-Ala-OH)]
> 10000 | 33 | 64.4 | > 10000 | 13 | 82.7 |  |  | RVYFHPA (N-terminal Sar; C-terminal acid) [SEQ ID NO: 21 (Sar-Arg-Val-Tyr-Phe-His-Pro-Ala-OH)]
> 10000 | 270 | 54.5 | 250 | 27 | 74.3 | 5.2 |  | RVYHHPA (N-terminal Sar; C-terminal acid) [SEQ ID NO: 22 (Sar-Arg-Val-Tyr-His-His-Pro-Ala-OH)]
250 | 820 | 44.3 | 77 | 230 | 62.1 | 51.1 | 19.3 | RVYYHPI (N-terminal Sar; C-terminal amide) [SEQ ID NO: 15 (Sar-Arg-Val-Tyr-Tyr-His-Pro-Ile-NH2)]
> 10000 | 880 | 56.9 | 92 | 140 | 76.9 | 24.4 |  | RVYEHPI (N-terminal Sar; C-terminal acid) [SEQ ID NO: 16 (Sar-Arg-Val-Tyr-Glu-His-Pro-Ile-OH)]
> 10000 | 480 | 61.3 | 7.4 | 63 | 74.1 | 15.1 |  | RVYRHPA (N-terminal Sar; C-terminal acid) [SEQ ID NO: 24 (Sar-Arg-Val-Tyr-Arg-His-Pro-Ala-OH)]
> 10000 | 44 | 61.2 | 11 | 39 | 84.9 | 10.3 |  | RVYKHPA (N-terminal Sar; C-terminal acid) [SEQ ID NO: 23 (Sar-Arg-Val-Tyr-Lys-His-Pro-Ala-OH)]
> 10000 | 31 | 67.9 | > 10000 | 18 | 91.2 |  |  | RVYYHPA (N-terminal Sar; C-terminal acid) [SEQ ID NO: 19 (Sar-Arg-Val-Tyr-Tyr-His-Pro-Ala-OH)]
